Assay results reported in US20230365714A1 (published 2023).

What was measured:
[1] = biological target: T1, human (Homo sapiens) ROR2, full length, on cells (human, UniProt Q01974 34-943); assay: flow cytometry on CHO cells expressing human ROR2
T1 construct: also called human ROR2; CHO-ROR2
Method: Cells (1×10⁵ cells/well) were incubated in polystyrene 96-well round-bottom plates (Greiner bio-one, cat. no. 650180) with serial dilutions of antibodies (ranging from 0.01 to 10 μg/mL in 3- or 4-fold dilution steps) in 100 μL PBS/0.1% BSA/0.02% azide (FACS buffer) at 4° C. for 30-60 min. Experiments were performed in technical duplicate. After washing twice in FACS buffer, cells were incubated in 50 μL secondary antibody (R-Phycoerythrin [PE]-conjugated goat-anti-human IgG F(ab′)₂; diluted 1:200 in FACS buffer; Jackson ImmunoResearch Laboratories, Inc., West Grove, PA, cat. no. 109-116-098) at 4° C. for 30 min. Cells were washed twice in FACS buffer, re-suspended in 30 μL FACS buffer containing Topro-3 (1:10,000 dilution) and analyzed on an iQue Screener (Intellicyt Corporation, USA). Binding curves were analyzed using non-linear regression (sigmoidal dose-response with variable slope) using GraphPad Prism V7.02 software (GraphPad Software, San Diego, CA, USA).

[2] = biological target: T2, cynomolgus monkey ROR2 in which threonine at position 322 is replaced by methionine (ROR2mf-T322M) (cynomolgus monkey (Macaca fascicularis), UniProt Q01974 34-943 (human entry)); assay: flow cytometry on CHO cells expressing ROR2mf-T322M
T2 construct: also called RORmf-T322M

[3] = biological target: T3, cynomolgus monkey (Macaca fascicularis) ROR2, full length, on CHO cells (cynomolgus monkey (Macaca fascicularis), UniProt Q01974 34-943 (human entry)); assay: flow cytometry on CHO cells expressing cynomolgus monkey ROR2
T3 construct: also called ROR2mf; CHO-mfROR2
T3 chain: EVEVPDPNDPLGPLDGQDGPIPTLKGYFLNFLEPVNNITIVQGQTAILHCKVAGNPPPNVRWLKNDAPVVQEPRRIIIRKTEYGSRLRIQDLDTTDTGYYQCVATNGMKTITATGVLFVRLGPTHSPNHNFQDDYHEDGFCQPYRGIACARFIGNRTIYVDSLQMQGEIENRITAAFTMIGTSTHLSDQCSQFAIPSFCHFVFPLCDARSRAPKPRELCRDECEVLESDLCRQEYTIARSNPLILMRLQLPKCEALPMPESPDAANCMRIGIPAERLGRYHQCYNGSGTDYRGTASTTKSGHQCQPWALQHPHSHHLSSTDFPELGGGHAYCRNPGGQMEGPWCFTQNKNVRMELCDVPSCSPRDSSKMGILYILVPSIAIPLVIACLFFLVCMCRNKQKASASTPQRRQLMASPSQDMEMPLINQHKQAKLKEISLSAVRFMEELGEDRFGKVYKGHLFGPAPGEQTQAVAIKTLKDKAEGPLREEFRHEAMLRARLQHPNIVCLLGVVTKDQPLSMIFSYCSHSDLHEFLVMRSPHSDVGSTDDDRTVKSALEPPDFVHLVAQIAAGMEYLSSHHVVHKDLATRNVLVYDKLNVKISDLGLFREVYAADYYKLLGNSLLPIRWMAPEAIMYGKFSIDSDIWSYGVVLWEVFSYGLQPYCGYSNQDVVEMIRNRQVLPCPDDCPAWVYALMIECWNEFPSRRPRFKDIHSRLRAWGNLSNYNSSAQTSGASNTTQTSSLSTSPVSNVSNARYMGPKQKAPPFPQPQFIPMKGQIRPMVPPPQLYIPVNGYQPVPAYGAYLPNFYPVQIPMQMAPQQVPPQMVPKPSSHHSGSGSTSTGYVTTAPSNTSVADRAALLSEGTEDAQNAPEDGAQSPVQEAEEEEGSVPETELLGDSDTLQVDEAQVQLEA
Method: Next, binding of bispecific CD3×ROR2 antibodies and monospecific ROR2 antibodies to CHO cells expressing human or cynomolgus monkey ROR2 was determined, using 5×10⁴ transfected cells/well and an antibody concentration range from 0.01-10 μg/mL.

[4] = biological target: T1, human (Homo sapiens) ROR2, full length, …; assay: flow cytometry on ROR2-expressing tumor cell lines

T1 sequence (Q01974 34-943 limits assumed): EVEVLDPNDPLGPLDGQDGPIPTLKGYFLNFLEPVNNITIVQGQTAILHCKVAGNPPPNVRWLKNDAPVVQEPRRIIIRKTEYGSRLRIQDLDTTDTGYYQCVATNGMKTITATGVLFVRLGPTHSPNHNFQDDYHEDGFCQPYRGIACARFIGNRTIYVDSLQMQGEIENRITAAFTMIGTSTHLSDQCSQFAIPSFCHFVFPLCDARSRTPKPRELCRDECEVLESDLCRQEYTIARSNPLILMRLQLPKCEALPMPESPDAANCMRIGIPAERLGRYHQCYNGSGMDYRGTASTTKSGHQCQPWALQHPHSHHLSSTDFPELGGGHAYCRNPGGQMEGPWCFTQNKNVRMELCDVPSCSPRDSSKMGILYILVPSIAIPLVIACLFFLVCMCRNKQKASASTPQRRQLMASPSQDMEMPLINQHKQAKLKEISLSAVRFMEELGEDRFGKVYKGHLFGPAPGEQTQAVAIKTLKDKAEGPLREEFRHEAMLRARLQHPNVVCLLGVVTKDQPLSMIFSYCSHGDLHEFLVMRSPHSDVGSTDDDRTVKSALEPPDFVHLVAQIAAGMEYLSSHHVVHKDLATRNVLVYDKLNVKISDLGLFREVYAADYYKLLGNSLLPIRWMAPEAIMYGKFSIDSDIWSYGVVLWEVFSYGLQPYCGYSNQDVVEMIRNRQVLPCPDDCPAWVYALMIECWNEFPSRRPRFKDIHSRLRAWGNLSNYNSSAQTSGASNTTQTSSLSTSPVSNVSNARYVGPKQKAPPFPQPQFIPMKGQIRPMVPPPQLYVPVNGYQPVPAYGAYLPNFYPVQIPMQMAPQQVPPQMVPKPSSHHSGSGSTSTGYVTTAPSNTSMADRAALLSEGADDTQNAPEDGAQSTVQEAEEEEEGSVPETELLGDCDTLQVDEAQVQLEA

Binder | binding result [1] | binding result [2] | binding result [3] | binding result [4]
bsIgG1-huCD3-FEAL×ROR2-A-HC4LC3-FEAR (bispecific antibody) heavy 1: not shown light 1: not shown heavy 2: EVQLLESGGGLVQPGGSLRLSCTVSGFSLSSYSMSWVRQAPGKGLEWIGVIYVNSKTWYANWAKGRFTISKDNSKNTVYLQMNSLRAEDTATYYCARGDAGYTTNSWLWGQGTLVTVSSASTKGPSVFPLAPSSKSTSGGTAALGCLVKDYFPEPVTVSWNSGALTSGVHTFPAVLQSSGLYSLSSVVTVPSSSLGTQTYICNVNHKPSNTKVDKRVEPKSCDKTHTCPPCPAPEFEGGPSVFLFPPKPKDTLMISRTPEVTCVVVAVSHEDPEVKFNWYVDGVEVHNAKTKPREEQYNSTYRVVSVLTVLHQDWLNGKEYKCKVSNKALPAPIEKTISKAKGQPREPQVYTLPPSREEMTKNQVSLTCLVKGFYPSDIAVEWESNGQPENNYKTTPPVLDSDGSFFLYSRLTVDKSRWQQGNVFSCSVMHEALHNHYTQKSLSLSPGK light 2: AFELTQSPSSLSASVGDRVTITCQASESIDNYLSWYQQKPGKAPKLLIYQAFKLASGVPSRFRGSGSGTDFTLTISSLQPEDFATYYCQSYSGISTTAFGGGTKVEIKRTVAAPSVFIFPPSDEQLKSGTASVVCLLNNFYPREAKVQWKVDNALQSGNSQESVTEQDSKDSTYSLSSTLTLSKADYEKHKVYACEVTHQGLSSPVTKSFNRGEC | binds | binds | binds | –
bsIgG1-huCD3-H101G-FEAL×b12-FEAR (bispecific antibody, Control bispecific; also called bsIgG1-huCD3-H1010G-FEAL×b12-FEAR) heavy 1: not shown light: not shown heavy 2: QVQLVQSGAEVKKPGASVKVSCQASGYRFSNFVIHWVRQAPGQRFEWMGWINPYNGNKEFSAKFQDRVTFTADTSANTAYMELRSLRSADTAVYYCARVGPYSWDDSPQDNYYMDVWGKGTTVIVSSASTKGPSVFPLAPSSKSTSGGTAALGCLVKDYFPEPVTVSWNSGALTSGVHTFPAVLQSSGLYSLSSVVTVPSSSLGTQTYICNVNHKPSNTKVDKRVEPKSCDKTHTCPPCPAPEFEGGPSVFLFPPKPKDTLMISRTPEVTCVVVAVSHEDPEVKFNWYVDGVEVHNAKTKPREEQYNSTYRVVSVLTVLHQDWLNGKEYKCKVSNKALPAPIEKTISKAKGQPREPQVYTLPPSREEMTKNQVSLTCLVKGFYPSDIAVEWESNGQPENNYKTTPPVLDSDGSFFLYSRLTVDKSRWQQGNVFSCSVMHEALHNHYTQKSLSLSPGK VL: EIVLTQSPGTLSLSPGERATFSCRSSHSIRSRRVAWYQHKPGQAPRLVIHGVSNRASGISDRFSGSGSGTDFTLTITRVEPEDFALYYCQVYGASSYTFGQGTKLERK | – | – | – | no binding (tested: 0.014-30 µg/mL)
